According to patent EP4786492A1:

What was measured:
[1] = molecular target: monkey DLL3 on CHO K1-cyno DLL3 cells (cynomolgus monkey DLL3 extracellular segment joined to EpCAM transmembrane and intracellular regions) (cynomolgus monkey); test: FACS, CHO K1-cyno DLL3 cells, 4 nM antibody
[2] = molecular target: human DLL3 endogenously expressed on SHP77 and NCI-H82 cells (human) (UniProt Q9NYJ7); test: FACS SHP77 cells, 0.16 nM
[3] = molecular target: monkey DLL3 on CHO K1-cyno DLL3 cells (cynomolgus monkey DLL3 extracellular segment joined to EpCAM transmembrane and intracellular regions) (cynomolgus monkey); test: FACS, CHO K1-cyno DLL3 cells, 100 nM antibody
[4] = molecular target: human DLL3 endogenously expressed on SHP77 and NCI-H82 cells (human) (UniProt Q9NYJ7); test: FACS SHP77 cells, 0.8 nM
[5] = molecular target: monkey DLL3 on CHO K1-cyno DLL3 cells (cynomolgus monkey DLL3 extracellular segment joined to EpCAM transmembrane and intracellular regions) (cynomolgus monkey); test: FACS, CHO K1-cyno DLL3 cells, 0.0064 nM antibody
[6] = molecular target: human DLL3 endogenously expressed on SHP77 and NCI-H82 cells (human) (UniProt Q9NYJ7); test: FACS SHP77 cells, 100 nM
[7] = molecular target: monkey DLL3 on CHO K1-cyno DLL3 cells (cynomolgus monkey DLL3 extracellular segment joined to EpCAM transmembrane and intracellular regions) (cynomolgus monkey); test: FACS, CHO K1-cyno DLL3 cells, 20 nM antibody
[8] = molecular target: human DLL3 endogenously expressed on SHP77 and NCI-H82 cells (human) (UniProt Q9NYJ7); test: FACS SHP77 cells, 0.00128 nM
[9] = molecular target: monkey DLL3 on CHO K1-cyno DLL3 cells (cynomolgus monkey DLL3 extracellular segment joined to EpCAM transmembrane and intracellular regions) (cynomolgus monkey); test: FACS, CHO K1-cyno DLL3 cells, 0.00128 nM antibody
[10] = molecular target: monkey DLL3 on CHO K1-cyno DLL3 cells (cynomolgus monkey DLL3 extracellular segment joined to EpCAM transmembrane and intracellular regions) (cynomolgus monkey); test: FACS, CHO K1-cyno DLL3 cells, 0.8 nM antibody
[11] = molecular target: human DLL3 endogenously expressed on SHP77 and NCI-H82 cells (human) (UniProt Q9NYJ7); test: FACS SHP77 cells, 0.032 nM
[12] = molecular target: monkey DLL3 on CHO K1-cyno DLL3 cells (cynomolgus monkey DLL3 extracellular segment joined to EpCAM transmembrane and intracellular regions) (cynomolgus monkey); test: FACS, CHO K1-cyno DLL3 cells, 0.16 nM antibody
[13] = molecular target: human DLL3 endogenously expressed on SHP77 and NCI-H82 cells (human) (UniProt Q9NYJ7); test: FACS SHP77 cells, 20 nM
[14] = molecular target: human DLL3 endogenously expressed on SHP77 and NCI-H82 cells (human) (UniProt Q9NYJ7); test: FACS SHP77 cells, 0.0064 nM
[15] = molecular target: human DLL3 endogenously expressed on SHP77 and NCI-H82 cells (human) (UniProt Q9NYJ7); test: FACS SHP77 cells, 4 nM
[16] = molecular target: monkey DLL3 on CHO K1-cyno DLL3 cells (cynomolgus monkey DLL3 extracellular segment joined to EpCAM transmembrane and intracellular regions) (cynomolgus monkey); test: FACS, CHO K1-cyno DLL3 cells, 0.032 nM antibody

Sequence of human DLL3 endogenously expressed on SHP77 and NCI-H82 cells (human) (Q9NYJ7 27-618): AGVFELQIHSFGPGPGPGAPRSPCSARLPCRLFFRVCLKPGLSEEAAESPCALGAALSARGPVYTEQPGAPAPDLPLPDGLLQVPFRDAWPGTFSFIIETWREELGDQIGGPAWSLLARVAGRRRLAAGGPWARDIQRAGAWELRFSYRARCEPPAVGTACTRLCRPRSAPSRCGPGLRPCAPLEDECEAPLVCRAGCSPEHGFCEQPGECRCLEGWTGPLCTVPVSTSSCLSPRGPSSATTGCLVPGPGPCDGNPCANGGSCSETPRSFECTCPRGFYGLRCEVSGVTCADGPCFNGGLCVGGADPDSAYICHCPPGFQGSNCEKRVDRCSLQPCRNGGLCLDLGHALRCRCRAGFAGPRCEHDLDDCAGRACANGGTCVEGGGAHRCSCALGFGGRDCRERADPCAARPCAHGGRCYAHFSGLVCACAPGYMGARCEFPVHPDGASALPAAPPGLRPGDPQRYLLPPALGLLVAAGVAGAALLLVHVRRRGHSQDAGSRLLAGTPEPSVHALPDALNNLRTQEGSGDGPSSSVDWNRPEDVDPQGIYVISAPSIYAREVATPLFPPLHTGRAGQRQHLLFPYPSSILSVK
Sequence of monkey DLL3 on CHO K1-cyno DLL3 cells (cynomolgus monkey DLL3 extracellular segment joined to EpCAM transmembrane and intracellular regions) (cynomolgus monkey) (chain, as listed by the source limits assumed): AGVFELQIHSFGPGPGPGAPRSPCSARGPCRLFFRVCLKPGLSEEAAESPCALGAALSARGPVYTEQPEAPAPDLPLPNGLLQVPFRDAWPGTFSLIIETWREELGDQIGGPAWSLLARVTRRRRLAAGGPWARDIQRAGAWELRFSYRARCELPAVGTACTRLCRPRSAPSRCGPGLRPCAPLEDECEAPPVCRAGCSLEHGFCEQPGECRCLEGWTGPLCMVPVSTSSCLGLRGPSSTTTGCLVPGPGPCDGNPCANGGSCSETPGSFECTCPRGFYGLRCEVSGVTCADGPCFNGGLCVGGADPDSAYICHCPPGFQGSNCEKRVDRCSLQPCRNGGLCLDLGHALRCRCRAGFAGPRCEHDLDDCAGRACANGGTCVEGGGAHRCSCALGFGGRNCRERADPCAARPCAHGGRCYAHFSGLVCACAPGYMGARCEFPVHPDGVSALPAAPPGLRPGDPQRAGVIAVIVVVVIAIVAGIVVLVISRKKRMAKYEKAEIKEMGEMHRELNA

B1: mab003 scFv-hFc (Fc fusion, part only; not given: VL-VH linker and human IgG1 Fc, not shown: another chain or arm of the molecule; a dimerising Fc or GST; small tags and cut ends)
VL: DVQITQSPSYLAASPGETITINCRASKSISKYLAWYQEKPGKTNKLLIYSGSTLHSGIPSRFSGSGSGTDFTLTISSLEPEDFAIYYCQQHNEYPLTFGGGTKLELK
VH: QVQLQQSGTELMKPGASVKLSCKATGYTFTGNWIEWVKQRPGHGLEWIGEILPGTGSTQYNEKFKGKATFTADPSSNTAYMQLSSLTTEDSAIYYCARWGSTVVAYDYWGQGTTLTVSS
Binder B1 has an MFI [1] of 7470 MFI, an MFI [2] of 566 MFI and an MFI [3] of 10600 MFI. For the same binder, the MFI [4] was 732 MFI, the MFI [5] was 243 MFI and the MFI [6] was 976 MFI. It also gave an MFI [7] of 8420 MFI, an MFI [8] of 182 MFI and an MFI [9] of 163 MFI. For the same binder, the MFI [10] was 5570 MFI, the MFI [11] was 351 MFI and the MFI [12] was 1820 MFI. It also gave an MFI [13] of 1280 MFI, an MFI [14] of 197 MFI and an MFI [15] of 789 MFI. The MFI [16] was 566 MFI.
